This note sets out measurements from US20110038920A1, “WOUND HEALING COMPOSITIONS AND TREATMENTS” (priority 2008, published 2011).

In this assay the test system is OPN expression in Swiss 3T3 fibroblasts. The experiment in a line: Induction of OPN expression in fibroblasts by growth factors/cytokines (Western blot). In kind it is cell-based. As to conditions: 8 h; PDGF-BB 20, EGF 100, TGFβ1 10, TGFβ3 10, IL-6 50, TNFα 10 ng/ml. The protocol:
Protein samples (20 μg; collected in T-PER® Reagent; PIERCE Biotechnology) were separated on Tris-Glycine Gels (Invitrogen), transferred to PVDF, and blotted according to standard protocols (antibody details are provided above).
Swiss 3T3, J774.1 macrophages, and RBL mast cells were cultured in DMEM+10% fetal calf serum. Primary neutrophils were harvested by peritoneal lavage 4 h post-thioglycollate-induced peritonitis, and primary macrophages were derived from mouse bone marrow and activated with LPS (500 ng/ml).
Background: In western blotting, separated proteins are transferred to a membrane and probed.

B1: TGFβ3: growth factor/cytokine, BioVision (protein, UniProt P10600 301-412, looked up)
Transforming growth factor …: ALDTNYCFRNLEENCCVRPLYIDFRQDLGWKWVHEPKGYYANFCSGPCPYLRSADTTHSTVLGLYNTLNPEASASPCCVPQDLEPLTILYYVGRTPKVEQLSNMVVKSCKCS
modifications: Transforming growth factor beta-3
notes: growth factor/cytokine, BioVision
Take B1: the “ability to upregulate OPN expression in Swiss 3T3s” value was “not”.
